Experimental data taken from publication PMC3333781, “Systematic mapping of two component response regulators to gene targets in a model sulfate reducing bacterium”.

Columns and labels:
[1] = target: T1, DVU1419 response regulator (Desulfovibrio vulgaris Hildenborough) (UniProt Q72C65); experiment: EMSA; conditions: EMSA: 10 mM Tris-HCl pH 7.5, 1 mM DTT, 50 mM KCl, 5 mM MgCl2, 25% glycerol, 1 ug/ml poly dI-dC, 50-100 fmol biotin-DNA, 25-30 C, 20 min
T1 sequence: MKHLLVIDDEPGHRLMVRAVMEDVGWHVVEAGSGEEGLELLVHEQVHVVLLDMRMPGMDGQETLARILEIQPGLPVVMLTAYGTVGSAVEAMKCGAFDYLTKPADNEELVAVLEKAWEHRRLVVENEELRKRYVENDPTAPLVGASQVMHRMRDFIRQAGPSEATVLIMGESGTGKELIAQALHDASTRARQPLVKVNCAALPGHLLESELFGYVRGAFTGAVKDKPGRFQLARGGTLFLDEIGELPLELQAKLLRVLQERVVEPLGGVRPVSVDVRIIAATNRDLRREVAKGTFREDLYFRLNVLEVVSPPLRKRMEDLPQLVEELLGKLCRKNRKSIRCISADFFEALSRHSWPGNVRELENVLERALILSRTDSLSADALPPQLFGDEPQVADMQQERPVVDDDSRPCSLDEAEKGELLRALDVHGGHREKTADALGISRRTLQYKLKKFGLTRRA

[2] = target: T2, DVU0679 response regulator (Desulfovibrio vulgaris Hildenborough, UniProt Q72E99 1-488); experiment: EMSA; EMSA: 10 mM Tris-HCl pH 7.5, 1 mM DTT, 50 mM KCl, 5 mM MgCl2, 25% glycerol, 1 ug/ml poly dI-dC, 50-100 fmol biotin-DNA, 25-30 C, 20 min; conditions: protein: recombinant; tags: C-terminal V5-6xHis; chain copies: 2; label: 5'-biotin top strand; blunt
T2 sequence: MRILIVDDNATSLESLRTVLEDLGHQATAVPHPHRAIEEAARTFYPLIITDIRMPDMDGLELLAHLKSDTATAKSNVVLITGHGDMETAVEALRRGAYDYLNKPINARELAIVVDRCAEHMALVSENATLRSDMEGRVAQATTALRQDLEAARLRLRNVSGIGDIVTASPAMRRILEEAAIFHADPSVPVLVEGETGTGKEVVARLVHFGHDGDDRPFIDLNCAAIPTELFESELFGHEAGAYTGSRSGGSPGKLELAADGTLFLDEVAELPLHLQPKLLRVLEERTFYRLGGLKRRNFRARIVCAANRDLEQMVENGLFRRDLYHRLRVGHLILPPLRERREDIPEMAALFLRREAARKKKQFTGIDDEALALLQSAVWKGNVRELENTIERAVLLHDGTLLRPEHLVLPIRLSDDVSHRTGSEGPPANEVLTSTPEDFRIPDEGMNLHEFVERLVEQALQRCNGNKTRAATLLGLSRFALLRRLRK

[3] = target: T3, DVU0118 response regulator (Desulfovibrio vulgaris Hildenborough, UniProt Q72FU5 1-454); experiment: as above; conditions: protein: recombinant; tags: C-terminal V5-6xHis; chain copies: 2; label: 5'-biotin top strand; blunt
T3 sequence: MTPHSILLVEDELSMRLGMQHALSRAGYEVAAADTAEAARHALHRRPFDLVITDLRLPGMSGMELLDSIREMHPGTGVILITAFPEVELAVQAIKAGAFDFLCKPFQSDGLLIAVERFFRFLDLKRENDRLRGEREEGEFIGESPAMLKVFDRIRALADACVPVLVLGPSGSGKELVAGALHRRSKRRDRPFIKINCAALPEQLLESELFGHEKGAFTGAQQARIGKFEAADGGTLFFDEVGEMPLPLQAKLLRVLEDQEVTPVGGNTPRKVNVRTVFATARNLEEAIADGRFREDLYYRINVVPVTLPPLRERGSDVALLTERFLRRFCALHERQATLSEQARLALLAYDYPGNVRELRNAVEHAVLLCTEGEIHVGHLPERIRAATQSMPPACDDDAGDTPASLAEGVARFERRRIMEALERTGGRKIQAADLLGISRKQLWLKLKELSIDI

[4] = target: T3, DVU0118 response regulator; experiment: EMSA; 10 mM Tris-HCl pH 7.5, 1 mM DTT, 50 mM KCl, 5 mM MgCl2, 25% glycerol, 1 ug/ml poly dI-dC, 50-100 fmol biotinylated DNA, 25-30 C, 20 min; conditions: protein: recombinant; tags: C-terminal V5-6xHis; chain copies: 2; label: 5'-biotin top strand
[5] = target: T4, DVU0946 response regulator (Desulfovibrio vulgaris Hildenborough, UniProt Q72DI3 1-476); experiment: EMSA; EMSA: 10 mM Tris-HCl pH 7.5, 1 mM DTT, 50 mM KCl, 5 mM MgCl2, 25% glycerol, 1 ug/ml poly dI-dC, 50-100 fmol biotin-DNA, 25-30 C, 20 min; conditions: protein: recombinant; tags: C-terminal V5-6xHis; chain copies: 2; label: 5'-biotin top strand; blunt
T4 sequence: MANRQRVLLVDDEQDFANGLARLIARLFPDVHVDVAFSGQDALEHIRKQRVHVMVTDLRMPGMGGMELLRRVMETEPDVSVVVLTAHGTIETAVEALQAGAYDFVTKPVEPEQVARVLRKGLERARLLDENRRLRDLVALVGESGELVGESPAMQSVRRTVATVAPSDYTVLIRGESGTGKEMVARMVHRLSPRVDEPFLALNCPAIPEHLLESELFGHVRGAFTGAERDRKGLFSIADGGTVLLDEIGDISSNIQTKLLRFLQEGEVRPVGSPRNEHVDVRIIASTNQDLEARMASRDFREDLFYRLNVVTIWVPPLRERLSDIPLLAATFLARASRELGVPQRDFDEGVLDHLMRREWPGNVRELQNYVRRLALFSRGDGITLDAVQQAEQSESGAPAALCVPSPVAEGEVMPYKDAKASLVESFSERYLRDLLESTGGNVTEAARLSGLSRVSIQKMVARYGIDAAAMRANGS

[6] = target: T5, DVU0539 response regulator (Desulfovibrio vulgaris Hildenborough, UniProt Q72EN8 1-467); experiment: as above; conditions: protein: recombinant; tags: C-terminal V5-6xHis; chain copies: 2; label: 5'-biotin top strand; blunt
T5 sequence: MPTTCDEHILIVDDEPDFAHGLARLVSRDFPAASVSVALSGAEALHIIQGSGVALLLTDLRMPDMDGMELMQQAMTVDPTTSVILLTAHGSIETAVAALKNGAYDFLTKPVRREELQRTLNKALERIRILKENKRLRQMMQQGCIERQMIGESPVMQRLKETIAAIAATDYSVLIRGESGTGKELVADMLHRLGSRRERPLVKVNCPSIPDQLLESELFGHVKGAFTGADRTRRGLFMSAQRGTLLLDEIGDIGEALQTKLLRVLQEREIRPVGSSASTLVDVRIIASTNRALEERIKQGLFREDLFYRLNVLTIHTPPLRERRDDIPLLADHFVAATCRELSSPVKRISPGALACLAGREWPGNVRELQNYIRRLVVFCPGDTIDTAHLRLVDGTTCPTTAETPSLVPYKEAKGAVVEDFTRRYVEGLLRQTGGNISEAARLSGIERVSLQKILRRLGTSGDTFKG

[7] = target: T6, DVU1419 response regulator (Desulfovibrio vulgaris Hildenborough, UniProt Q72C65 1-459); experiment: as above; conditions: protein: recombinant; tags: C-terminal V5-6xHis; chain copies: 2; label: 5'-biotin top strand; blunt
T6 sequence: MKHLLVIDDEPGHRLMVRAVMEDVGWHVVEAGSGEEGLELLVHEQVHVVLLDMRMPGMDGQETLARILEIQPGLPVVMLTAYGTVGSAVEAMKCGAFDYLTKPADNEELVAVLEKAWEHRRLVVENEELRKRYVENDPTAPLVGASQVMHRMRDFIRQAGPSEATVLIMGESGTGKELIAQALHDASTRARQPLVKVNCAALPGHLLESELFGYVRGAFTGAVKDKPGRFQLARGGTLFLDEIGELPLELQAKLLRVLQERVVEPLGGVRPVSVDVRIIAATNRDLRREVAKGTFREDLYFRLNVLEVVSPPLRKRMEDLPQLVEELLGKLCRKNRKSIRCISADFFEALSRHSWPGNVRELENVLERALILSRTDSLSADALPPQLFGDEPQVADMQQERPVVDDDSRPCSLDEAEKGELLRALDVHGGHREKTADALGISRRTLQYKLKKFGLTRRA

[8] = target: T7, DVU1063 response regulator (Desulfovibrio vulgaris Hildenborough, UniProt Q72D66 1-479); experiment: as above; conditions: protein: recombinant; tags: C-terminal V5-6xHis; chain copies: 2; label: 5'-biotin top strand; blunt
T7 sequence: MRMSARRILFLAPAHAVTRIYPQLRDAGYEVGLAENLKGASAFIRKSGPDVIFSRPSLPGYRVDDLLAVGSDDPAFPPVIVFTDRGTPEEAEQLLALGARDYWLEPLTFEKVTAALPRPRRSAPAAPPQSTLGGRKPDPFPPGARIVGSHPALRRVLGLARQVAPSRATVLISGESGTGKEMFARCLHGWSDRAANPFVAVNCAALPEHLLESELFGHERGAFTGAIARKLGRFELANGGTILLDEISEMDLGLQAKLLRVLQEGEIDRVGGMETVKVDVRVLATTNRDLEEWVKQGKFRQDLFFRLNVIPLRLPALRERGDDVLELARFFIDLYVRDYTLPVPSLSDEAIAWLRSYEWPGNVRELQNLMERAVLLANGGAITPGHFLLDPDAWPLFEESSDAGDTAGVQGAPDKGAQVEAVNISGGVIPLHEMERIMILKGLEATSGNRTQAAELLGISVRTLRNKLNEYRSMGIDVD

[9] = target: T8, DVU2394 response regulator (Desulfovibrio vulgaris Hildenborough, UniProt Q729F7 1-463); experiment: EMSA; 10 mM Tris-HCl pH 7.5, 1 mM DTT, 50 mM KCl, 5 mM MgCl2, 25% glycerol, 1 ug/ml poly dI-dC, 50-100 fmol biotinylated DNA, 25-30 C, 20 min; conditions: protein: recombinant; tags: C-terminal V5-6xHis; chain copies: 2; label: 5'-biotin top strand
T8 sequence: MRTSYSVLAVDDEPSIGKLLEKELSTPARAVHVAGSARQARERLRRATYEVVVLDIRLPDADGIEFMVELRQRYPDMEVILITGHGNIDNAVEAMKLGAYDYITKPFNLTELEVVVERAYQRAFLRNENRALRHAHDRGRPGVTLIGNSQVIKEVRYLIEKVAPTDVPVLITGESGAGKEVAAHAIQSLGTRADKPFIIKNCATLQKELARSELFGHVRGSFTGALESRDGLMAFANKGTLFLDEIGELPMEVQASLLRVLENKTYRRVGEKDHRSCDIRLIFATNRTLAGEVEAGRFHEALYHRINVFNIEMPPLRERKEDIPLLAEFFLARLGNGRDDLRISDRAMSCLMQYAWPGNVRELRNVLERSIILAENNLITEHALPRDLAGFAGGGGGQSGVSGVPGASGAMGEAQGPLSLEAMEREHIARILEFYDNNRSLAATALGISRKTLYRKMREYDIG

GTCGGCGATTTCCATGAAGACTCCGGTGGTGTCTGGCGGGACATGAAAGAACTGTGCCGAAGGGTGACACCCCGGCAGATGCTGATGCCGGGTGCGCCACCACAGGCCAGCCCTTGCACCATGTCGCATCGCAAGGTCTCTGCGTTGCCTCGCAACGCGGTGCCGTGCACCATGAATGTGCAAACGATGGCACACAACGCCACGGCGTGCAATAAGATGCACACCACCTGCACATATCAAGCCTCATGTGAAGGAAAAGGACGGC (double strand) [DVU1418 upstream]
binding [1]: binds

B1: DVU0677 motif wt (dsDNA)
DNA 1: AATCGCACGCCGTGCGTATTCGCACGTGCTTTTCCG
DNA 2: CGGAAAAGCACGTGCGAATACGCACGGCGTGCGATT
binding result [2]: binds

B2: DVU0123 motif wt (dsDNA)
DNA 1: CGAACAGGAACATGTTCCCTCAAAGGAACATCGTTGGTGGAA
DNA 2: TTCCACCAACGATGTTCCTTTGAGGGAACATGTTCCTGTTCG
binding result [3]: binds

B3: DVU0123 motif mut (dsDNA)
DNA 1: CGAACAGGAACTTCTTGCCTCAAAGGTACGTCGTTGGTGGAA
DNA 2: TTCCACCAACGACGTACCTTTGAGGCAAGAAGTTCCTGTTCG
binding result [4]: no binding

B4: DVU0943 motif wt (dsDNA)
DNA 1: AGGTTTACGATGCAAAGTGATGTTTGCAGCTTGCCGAG
DNA 2: CTCGGCAAGCTGCAAACATCACTTTGCATCGTAAACCT
binding result [5]: binds | binding result [6]: binds

B5: DVU1418 motif wt (dsDNA)
DNA 1: GCCGTGGCGTTGTGTGCCATCGTTTGCACATTCATGGTGC
DNA 2: GCACCATGAATGTGCAAACGATGGCACACAACGCCACGGC
binding result [7]: binds

B6: DVU1418 motif mut (dsDNA)
DNA 1: GCCGTGGCGTTGTATGCCATCGTTTGCTCGTTCATGGTGC
DNA 2: GCACCATGAACGAGCAAACGATGGCATACAACGCCACGGC
binding result [7]: no binding

B7: DVU1032 motif wt (dsDNA)
DNA 1: GGCATGGTCGGGCGGCAGTTTTTTCCTGTATCCTG
DNA 2: CAGGATACAGGAAAAAACTGCCGCCCGACCATGCC
binding result [8]: binds

B8: DVU2405 motif mut (dsDNA)
DNA 1: TCCAGCCATCTATGTTTTTTCGTGACTATGTTGAAGTTCGACCCAA
DNA 2: TTGGGTCGAACTTCAACATAGTCACGAAAAAACATAGATGGCTGGA
binding result [9]: no binding
